From PMC3479203

Target: C-terminal SPA-tagged RpoB fusion protein (B. subtilis) (UniProt P37870)
Assay: affinity purification with mass spectrometry

UniProt P37870, sequence (P37870 whole entry, the tested form may be a part): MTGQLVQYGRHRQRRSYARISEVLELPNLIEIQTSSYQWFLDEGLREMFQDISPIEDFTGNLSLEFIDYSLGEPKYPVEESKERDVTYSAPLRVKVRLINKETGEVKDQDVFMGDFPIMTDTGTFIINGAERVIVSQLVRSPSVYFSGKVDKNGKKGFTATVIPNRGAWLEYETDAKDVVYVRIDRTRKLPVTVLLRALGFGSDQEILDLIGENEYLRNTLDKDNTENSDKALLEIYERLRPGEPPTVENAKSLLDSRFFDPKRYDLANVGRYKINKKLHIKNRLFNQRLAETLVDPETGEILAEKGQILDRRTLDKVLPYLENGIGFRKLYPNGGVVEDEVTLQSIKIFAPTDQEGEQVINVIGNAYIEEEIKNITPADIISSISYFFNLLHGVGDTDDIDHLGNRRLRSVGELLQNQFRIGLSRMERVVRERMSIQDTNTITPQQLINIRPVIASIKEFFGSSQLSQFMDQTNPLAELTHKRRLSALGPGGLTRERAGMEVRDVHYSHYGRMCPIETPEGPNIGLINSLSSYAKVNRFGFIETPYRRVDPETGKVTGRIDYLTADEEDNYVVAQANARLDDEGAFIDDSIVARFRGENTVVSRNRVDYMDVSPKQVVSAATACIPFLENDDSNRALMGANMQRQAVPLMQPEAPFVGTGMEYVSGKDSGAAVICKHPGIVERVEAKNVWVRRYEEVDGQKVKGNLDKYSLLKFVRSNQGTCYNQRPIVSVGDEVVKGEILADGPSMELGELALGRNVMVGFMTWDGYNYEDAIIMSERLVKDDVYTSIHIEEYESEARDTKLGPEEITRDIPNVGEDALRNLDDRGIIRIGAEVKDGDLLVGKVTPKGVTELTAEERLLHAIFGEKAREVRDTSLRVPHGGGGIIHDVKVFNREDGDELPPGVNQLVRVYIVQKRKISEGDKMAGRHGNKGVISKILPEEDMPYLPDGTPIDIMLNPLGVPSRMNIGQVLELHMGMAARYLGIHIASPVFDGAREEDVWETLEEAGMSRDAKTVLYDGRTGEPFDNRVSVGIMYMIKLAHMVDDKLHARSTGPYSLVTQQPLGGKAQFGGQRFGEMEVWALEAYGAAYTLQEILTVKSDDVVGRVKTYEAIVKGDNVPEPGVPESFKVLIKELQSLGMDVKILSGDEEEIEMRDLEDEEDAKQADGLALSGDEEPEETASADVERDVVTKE

relative fraction of RNAP bound to SigA, diamide stress [%]	relative fraction of RNAP bound to SigA, no stress [%]	relative fraction of RNAP bound to Spx, diamide stress [%]	relative fraction of RNAP bound to Spx, no stress [%]	Molecule
58.1	61.5	–	–	SigA (43 kDa) (from UniProt P06224 1-371) (natural protein)
–	–	21.6	11	Spx (15 kDa) (natural protein) MVTLYTSPSCTSCRKARAWLEEHEIPFVERNIFSEPLSIDEIKQILRMTEDGTDEIISTRSKVFQKLNVNVESMPLQDLYRLINEHPGLLRRPIIIDEKRLQVGYNEDEIRRFLPRKVRSFQLREAQRLAN
